According to patent US20260055210A1 (MONTEFIORE MEDICAL CENTER, published 2026):

B1: human thrombopoietin receptor cMPL expressed on the surface of Freestyle HEK293 cells (receptor, UniProt P40238 26-635, looked up)
chain: QDVSLLASDSEPLKCFSRTFEDLTCFWDEEEAAPSGTYQLLYAYPREKPRACPLSSQSMPHFGTRYVCQFPDQEEVRLFFPLHLWVKNVFLNQTRTQRVLFVDSVGLPAPPSIIKAMGGSQPGELQISWEEPAPEISDFLRYELRYGPRDPKNSTGPTVIQLIATETCCPALQRPHSASALDQSPCAQPTMPWQDGPKQTSPSREASALTAEGGSCLISGLQPGNSYWLQLRSEPDGISLGGSWGSWSLPVTVDLPGDAVALGLQCFTLDLKNVTCQWQQQDHASSQGFFYHSRARCCPRDRYPIWENCEEEEKTNPGLQTPQFSRCHFKSRNDSIIHILVEVTTAPGTVHSYLGSPFWIHQAVRLPTPNLHWREISSGHLELEWQHPSSWAAQETCYQLRYTGEGHQDWKVLEPPLGARGGTLELRPRSRYRLQLRARLNGPTYQGPWSSWSDPTRVETATETAWISLVTALHLVLGLSAVLGLLLLRWQFPAHYRRLRHALWPSLPDLHRVLGQYLRDTAALSPPKATVSDTCEEVEPSLLEILPKSSERTPLPLCSSQAQMDYRRLQPSCLGTMPLSVCPPMAESGSCCTTHIANHSYLPLSYWQQP
notes: whole, on cells; also called human cMPL; human cMLP; not shown: Fused with either GFP (printed 'GPF') or mCherry
B2: mouse thrombopoietin receptor cMPL expressed on the surface of Freestyle HEK293 cells (receptor, UniProt Q08351 26-625, looked up)
chain: QDVFLLALGTEPLNCFSQTFEDLTCFWDEEEAAPSGTYQLLYAYRGEKPRACPLYSQSVPTFGTRYVCQFPAQDEVRLFFPLHLWVKNVSLNQTLIQRVLFVDSVGLPAPPRVIKARGGSQPGELQIHWEAPAPEISDFLRHELRYGPTDSSNATAPSVIQLLSTETCCPTLWMPNPVPVLDQPPCVHPTASQPHGPAPFLTVKGGSCLVSGLQAGKSYWLQLRSQPDGVSLRGSWGPWSFPVTVDLPGDAVTIGLQCFTLDLKMVTCQWQQQDRTSSQGFFRHSRTRCCPTDRDPTWEKCEEEEPRPGSQPALVSRCHFKSRNDSVIHILVEVTTAQGAVHSYLGSPFWIHQAVLLPTPSLHWREVSSGRLELEWQHQSSWAAQETCYQLRYTGEGREDWKVLEPSLGARGGTLELRPRARYSLQLRARLNGPTYQGPWSAWSPPARVSTGSETAWITLVTALLLVLSLSALLGLLLLKWQFPAHYRRLRHALWPSLPDLHRVLGQYLRDTAALSPSKATVTDSCEEVEPSLLEILPKSSESTPLPLCPSQPQMDYRGLQPCLRTMPLSVCPPMAETGSCCTTHIANHSYLPLSYWQQP
notes: whole, on cells; also called mouse cMPL; mouse cMLP; not shown: Fused with either GFP (printed 'GPF') or mCherry

Molecular target: T1, Human IgG1 Fc (human, UniProt P01857-1 100-330 = IgG part, limits assumed)
T1 construct: domain: Fc; Negative control; also called human IgG1 Fc domain
Assay: flow cytometry, percent of bound cells, cMPL-expressing HEK293 cells
From the text: To study the binding capabilities of the fusion polypeptide provided herein to thrombopoietin receptors, the fusion polypeptides were contacted with cells expressing thrombopoietin receptor cMPL. Mouse or human thrombopoietin receptor cMPL was expressed on the surface of Freestyle™ HEK293 cell line. Mouse or human thrombopoietin receptor cMPL were expressed as a fusion polypeptide with either GPF or mCherry. Expression of cMPL receptors was confirmed by measuring fluorescent signal. As a general control, PD1 protein binding to PDL1-expressing cells was used. Human IgG1 Fc and secondary antibody were used as a negative control since they would not be expected to bind to cMPL. […] The cMPL expressing cells were treated with Nplate (Romiplostim) as the positive control. FLT3L-romiplostim fusion polypeptide with a His-Tag, FLT3L-romiplostim fusion polypeptide without a His-Tag were tested. Binding was analyzed using a fluorescent secondary antibody against IgG1 domain of the polypeptide. The percentages of cells bound to the tested polypeptide were quantified.

Binder	binding result
B1	no binding
B2	no binding
